The numbers were not newly measured in paper PMC8100127, which cites them from elsewhere.

One data set concerns the target CA 15-3 (MUC1) (UniProt P15941). Conditions: No purified-protein binding assay in this paper (Kd values cited). TAS on plasma EVs: 0.1 uM Cy5-aptamer, 1x PBS, 2 mM MgCl2, 25 C, 2 h.
The target in data set [1] is T1, VEGF K321N;internal_change (UniProt P15692).
T1 sequence: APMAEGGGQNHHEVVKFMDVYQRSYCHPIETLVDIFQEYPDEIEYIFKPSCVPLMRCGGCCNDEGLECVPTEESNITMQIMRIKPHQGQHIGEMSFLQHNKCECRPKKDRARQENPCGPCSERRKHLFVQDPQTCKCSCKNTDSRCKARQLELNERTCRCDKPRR
As to conditions: No purified-protein binding assay in this paper (Kd values cited). TAS on plasma EVs: 0.1 uM Cy5-aptamer, 1x PBS, 2 mM MgCl2, 25 C, 2 h.

Sequence of CA 15-3 (MUC1) (P15941 24-1097): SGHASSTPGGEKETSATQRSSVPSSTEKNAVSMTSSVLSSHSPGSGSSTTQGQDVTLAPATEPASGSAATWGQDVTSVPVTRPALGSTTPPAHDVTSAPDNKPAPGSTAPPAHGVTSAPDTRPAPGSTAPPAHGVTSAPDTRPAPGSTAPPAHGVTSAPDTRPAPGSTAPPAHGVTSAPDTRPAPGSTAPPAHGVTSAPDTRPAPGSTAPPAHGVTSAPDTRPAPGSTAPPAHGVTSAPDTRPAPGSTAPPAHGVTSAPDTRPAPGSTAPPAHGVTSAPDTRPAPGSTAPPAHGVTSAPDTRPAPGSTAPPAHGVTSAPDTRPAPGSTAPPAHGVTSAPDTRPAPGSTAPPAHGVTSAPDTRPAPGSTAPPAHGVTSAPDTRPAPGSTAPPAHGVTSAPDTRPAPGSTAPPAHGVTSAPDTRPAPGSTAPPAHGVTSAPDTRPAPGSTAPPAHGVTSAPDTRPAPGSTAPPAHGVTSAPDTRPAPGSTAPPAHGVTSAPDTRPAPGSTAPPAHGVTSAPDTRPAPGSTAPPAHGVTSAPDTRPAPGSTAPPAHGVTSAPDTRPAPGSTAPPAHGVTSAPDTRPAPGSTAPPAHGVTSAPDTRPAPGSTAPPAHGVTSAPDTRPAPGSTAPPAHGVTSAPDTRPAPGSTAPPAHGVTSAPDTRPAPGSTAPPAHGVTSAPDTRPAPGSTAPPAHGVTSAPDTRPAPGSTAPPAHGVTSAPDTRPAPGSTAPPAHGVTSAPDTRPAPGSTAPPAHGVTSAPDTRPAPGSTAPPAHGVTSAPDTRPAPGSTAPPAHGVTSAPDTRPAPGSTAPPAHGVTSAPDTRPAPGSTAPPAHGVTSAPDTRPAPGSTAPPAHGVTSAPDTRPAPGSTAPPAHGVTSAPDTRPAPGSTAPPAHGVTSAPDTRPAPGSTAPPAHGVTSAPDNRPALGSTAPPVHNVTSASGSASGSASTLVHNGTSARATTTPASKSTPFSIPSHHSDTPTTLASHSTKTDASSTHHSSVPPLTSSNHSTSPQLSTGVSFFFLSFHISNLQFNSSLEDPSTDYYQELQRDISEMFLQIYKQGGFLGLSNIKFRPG

As for “GCAGTTGATCCTTTGGATACCCTGG [CA 15-3 aptamer]”, in the data set with CA 15-3 (MUC1), the equilibrium dissociation constant (Kd) (as a rule, the constant that tells how readily two partners part at equilibrium) is 0.135 nM. As for “TTCCCGTCTTCCAGACAAGAGTGCAGGG [VEGF aptamer]”, in data set [1], the Kd is 400 nM.
